According to the supplement of paper PMC12042874:
± gives the uncertainty stated by the source.

Experiment: amyloid nucleation score (Sup35N fusion, yeast selection) (log enrichment); library NNK1; higher = more nucleation; inactive = no reads after selection
Procedure, shortened: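 The nucleation score is the log enrichment of output over input reads, calculated with DiMSum and centred on the mode score of non-aggregating sequences. Sequences with under 100 input reads were excluded. Reads came from Illumina sequencing of plasmid inserts from psi-negative yeast expressing Sup35N fused to peptides of 20 random codons, induced 24 hours with 100 μM copper sulfate and grown 7 days at 30°C without adenine and uracil.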

Substance	amyloid nucleation score
LRAYSVAFYRLPHVSN	1.35 ± 0.79
LRCLVLYDEVANGRPEDSGG	0.725 ± 1
LRFRMNSLLVKWFFP	-0.199 ± 0.34
LRGRLYASGRVEFYHKQSLF	0.526 ± 0.83
LRHLVIGNKNALLVWFRSHI	0.817 ± 0.52
LRIFSKLFTSSLYNCFEGIP	0.143 ± 0.58
LRKALRLDVHLGTNLYLNSF	0.542 ± 0.75
LRLPSRAFEGFRREAAWGST	1.23 ± 0.76
LRNDLVETSVLGA	1.47 ± 0.54
LRNVSFSDFVYWSGFFRGVV	inactive
LRPYFLGCRRSKKPKALLAG	0.252 ± 0.8
LRSLAPCVLGKTGESEPRAF	0.056 ± 0.58
LRTISNVDLLSVS	0.138 ± 0.54
LRTNTWCYGESSRLWGWCGG	0.067 ± 1.2
LRTVPIALIRNMLPVNQESR	0.479 ± 0.53
LRVYPGTYLTNRETRSRSCI	0.828 ± 0.43
LRYFDFCISRLDSEGN	0.264 ± 0.64
LSAMWKSPMHRERRTWGM	0.096 ± 0.42
LSCYLYALVKGLGLRVGHIK	0.177 ± 0.55
LSEYYKAKGDRVTWPQFLTT	-0.453 ± 0.49
LSFIKRMTMNMLTKLD	1.68 ± 0.13
LSGGWEVPQVVAERKARPWI	-0.037 ± 1.7
LSGMDTLGIVRCAVA	-0.325 ± 0.46
LSGSMGA	-0.105 ± 0.44
LSGTNASIWY	-0.212 ± 0.35

Substance	amyloid nucleation score
LSGVLGSVAFAYIRPRTGFG	-0.143 ± 1.2
LSHVKTTRLMPLET	-1.11 ± 1.7
LSKYP	0.383 ± 0.35
LSLNSHYCDDCVWLFR	1.02 ± 0.45
LSLRCCGFYLIVFFVIKFVS	-0.536 ± 0.29
LSLSYHMLSYI	inactive
LSNALS	0.8 ± 0.81
LSNFDRWKTSTVWNSGWFAA	-0.149 ± 1.3
LSRIDRFTVGENMVTATFLI	inactive
LSRILLRKNC	0.224 ± 0.61
LSRLCGSRLLVRVVWRHYRG	-0.21 ± 0.28
LSRSSWQQARICARVHGLGG	1.05 ± 0.58
LSSRHVAGYQEYLNDL	-0.88 ± 0.72
LSSSWLNKKLH	-0.647 ± 0.9
LSTTWDFESMGVRVSREYPG	0.351 ± 0.58
LTCKMDIDKVWVGDMLYS	-0.677 ± 0.62
LTEDMNYFAY	0.252 ± 0.46
LTFLRIYAIDSEPHLSGTML	-0.51 ± 0.71
LTGGVDHC	0.138 ± 0.32
LTGRCPFVGLRLEGHLFLTG	-0.169 ± 0.81
LTKISQLKRCDHKMRKSVSN	0.517 ± 0.26
LTKRVGFDEMSLPHQDASSV	-0.289 ± 0.36
LTMCSGICEVIRQARDHHYR	0.149 ± 0.97
LTSFETFQNFNMAVMYAR	-0.236 ± 0.65
LTSSCQSSLKRKWGNIWHIR	-0.641 ± 1.1

Substance	amyloid nucleation score
LTYRVFIHYRSRQYVFGTVS	-0.667 ± 0.62
LVAFRYLRSGSSRLKFSVLF	-0.787 ± 0.48
LVESMNLIPATANRHNFTRL	-0.672 ± 1.4
LVGGVTNWWCVEVDQKGQNG	inactive
LVGPAVVSYCCIRLISVVD	1.94 ± 0.58
LVGRYSWWQRRRHGTCMGTV	0.629 ± 0.54
LVGVWMDCLMKPKPIARTLP	inactive
LVIALSQTDAYGELVSRNMC	1.06 ± 0.97
LVIFKLTM	3.51 ± 0.066
LVISETWGSCFWNSVDSCAG	0.815 ± 0.66
LVMFSNLCSWFLLF	0.966 ± 0.62
LVRWVCIGFRYILRGELGVE	0.052 ± 0.28
LVSLRSIRSRRWCSRQFWSM	-0.111 ± 0.5
LVSWSTVDVSQLTAWKKPAG	-0.431 ± 0.36
LVTFPKLSEVIHGKADVMHS	-0.633 ± 0.88
LVVCAVVGSDLLWL	0.848 ± 0.72
LVVFATSVGSGGFKVWGHPG	0.041 ± 0.45
LVVIVTPWKYSEP	6.58 ± 0.086
LVVSWKLVPSSSTYCGTMSL	inactive
LVWGFFSHRM	2.37 ± 0.14
LVYGKPVNHAEGSDDSTHNG	0.205 ± 0.6
LWLIVEDSVYFVGMQGHIFN	-0.381 ± 0.39
LWLLHGFDWWKCIYLPGRFL	0.307 ± 0.97
LWLLYVIECHLGCYRTVLMG	-0.385 ± 0.93
LWMFRFNYYDVLPCGMPGLC	0.694 ± 0.66

Substance	amyloid nucleation score
LWSLDSDSCKVLGDSGCGFF	0.133 ± 0.34
LWSTMICLVFMYPIILVNFT	1.64 ± 0.36
LWVVPLE	-0.643 ± 1.9
LWYSFNVHTVHYYQCSDIYS	-0.142 ± 0.26
LYETMTCFWMRLWSFCGSPA	-0.033 ± 0.69
LYFGNTGKGNFRQVSRLKHS	0.116 ± 0.73
LYFITTM	1.18 ± 0.59
LYGFLICLCDSYVRGH	0.213 ± 0.49
LYGNT	1.37 ± 0.38
LYIRSIACGSSLLFLAVLNC	-0.856 ± 1.1
LYITVIVHNWVLGWKRVLLE	1.64 ± 0.71
LYLDIWYCQIKVTFIGP	inactive
LYLNADLYYE	0.005 ± 0.7
LYNSGSTLI	0.342 ± 0.61
LYNTITRDTTPHGVEN	-1.84 ± 2.7
LYRAAEYSLRILRLKATYPA	-0.134 ± 0.89
LYSAGRCYARSCVKL	0.829 ± 0.27
LYVTLV	2.23 ± 0.17
LYWNVVN	-0.578 ± 0.5
MALLRLDIITFRNESCSEPN	-0.046 ± 0.26
MALMYLMVTRVDLALSL	0.072 ± 0.34
MASRHKEWRCVMYEHGLRAC	0.58 ± 1.2
MAVERLGSQVERDIRGWWRV	0.063 ± 0.59
MCCCLDDEGDHLNWFKRLRC	1.52 ± 0.49
MCDCLPPCDSGWNFFEWGWE	-0.131 ± 0.69

Substance	amyloid nucleation score
MCDYFYNIVFVKCCALWCLD	4.01 ± 0.069
MCTLDLD	0.824 ± 0.54
MDTVFSFYVIIPVQFSCVAL	3 ± 0.13
MDWNQGVAGATMIYLCFNNN	7.881 ± 0.064
MEFISFTWLKYSYMYSDVFS	inactive
MERDEFKFLGERLGWLSCWR	1.04 ± 0.57
MEVISRSVLSSLSWFGTVEE	0.598 ± 0.5
MFCFKGHQSRDLRTFDYIW	0.1 ± 0.27
MFCLALECEVHLGMHYYNHA	0.906 ± 0.2
MFGQWMAPHQTRFGSGQFGW	-0.038 ± 0.38
MFRCFSDTKSNRTFCFMHTC	-0.143 ± 0.56
MFSYDFGMCGFYN	0.971 ± 0.29
MGAIFCNGSK	0.371 ± 0.67
MGCWCLASRDLTKT	-0.485 ± 1
MGFDLSRRTCLYYLVTLSW	0.014 ± 1.1
MGLQTFVVTRMV	-0.758 ± 0.42
MGMGNVYAIQFCPMILWD	6.783 ± 0.057
MGNTLITLIVGSGAL	3.44 ± 0.18
MGPMCSQPLHVPSMVSMVTL	0.735 ± 0.35
MGVVQCAKRQQRLLMQLTVL	0.054 ± 0.93
MHPFVRSEK	0.168 ± 0.36
MHRESR	1.2 ± 0.36
MHWFRVN	0.324 ± 0.3
MICAQSVS	0.991 ± 0.24
MICMD	-0.27 ± 0.3

Substance	amyloid nucleation score
MIDRRKSLVEGRGRNCVSGC	-0.646 ± 1.1
MIKYYYGSGTLS	-0.429 ± 0.34
MILHLDVSISIVLD	1.58 ± 0.15
MIRFKQT	-0.651 ± 0.45
MIRQYDCSVFKCRERYFWAF	0.675 ± 0.85
MISIS	0.088 ± 0.26
MISMFSLFLIRMIM	-0.052 ± 0.54
MITIRVLEQDHLSLSLALSY	-0.597 ± 0.57
MIVYNMFGMNYYLFILDG	7.508 ± 0.048
MKAGFHYYLVMLVRKE	0.265 ± 0.31
MKFFRRFYREYF	-0.431 ± 1
MKLMKPGTLSSWCFFDSSGV	0.016 ± 0.51
MKMNDYMGVRDWVHLIDVCS	inactive
MKSCASDPVCCPQTTRSTSL	0.742 ± 0.49
MKTMRKW	inactive
MKVRQDRKPYWVAESAMCVC	-0.261 ± 0.59
MLEVKPLTCMVSPIYDFMPG	-0.134 ± 0.41
MLGSYLHVDSGNCTKVLRTV	0.326 ± 0.41
MLISSILTYIKVSGYCPGCT	0.347 ± 0.52
MLLIRNFQFTTLFVCHFSAE	-0.038 ± 0.16
MLLWSVSLNKKKTLKECRRQ	1.16 ± 0.67
MLNINVTYGFGDLREWNRIF	1.16 ± 0.13
MLRMQKIGLFSLGMSC	-0.838 ± 0.47
MLSGSVAESKNLIQLCAFFM	6.704 ± 0.047
MLVNSM	0.497 ± 0.49

Substance	amyloid nucleation score
MLYDFVDIRECNDILPARGG	0.043 ± 0.35
MMCGNLY	0.625 ± 0.7
MMLRLRT	inactive
MMRGTLC	0.458 ± 0.41
MMRTWGLFRVGRWESWRPVR	0.26 ± 0.78
MMVLKFGMLVLSGDLAPATS	0.854 ± 0.72
MNASITFSVLWVACETKCRV	3.42 ± 0.14
MNMICSFL	-1.39 ± 1.4
MPAWFILGDVVL	1.2 ± 0.35
MPDFSWA	-0.115 ± 1.2
MPNSPQS	-0.404 ± 0.3
MQGDRQDGLYNKGDYPQFIF	-0.267 ± 0.39
MQGFHSW	inactive
MQTLPIR	-0.519 ± 0.46
MREGFTLFVDKDCNAGTYTW	inactive
MRGFHSQRHSIAECVAIQKG	0.359 ± 0.37
MRGTSEFYLVRGRYTCISRG	-0.292 ± 0.45
MRLLIGEKIMWSLRCCSDKG	-0.263 ± 0.29
MRLWLIWYISVMLTQNPRLW	1.22 ± 0.46
MRPPGNPGWWVRRKARWDPG	-0.506 ± 1
MRSLSVLFGIRTCLTVQWSK	0.276 ± 0.66
MRWHINATLNGRLGAGLILV	-0.526 ± 0.7
